Data on two molecules can be found in patent US20240293460A1 (published 2024).

In this assay the target is soluble DKK1 peptide P20/HLA-A2 complex (human;, UniProt P61769 21-119; O94907 20-29). As to the kind of experiment: SPR.

B1: DKK1-A2 mAb HMB1 (antibody, V domains shown)
VH: QVQLKESGPGLVAPSQSLSITCTVSGFSLTDFAVTWIRQPPGKGLEWLGVIWGGGSTYYNSALKSRLSISKDNSKSQVFLKMNSLQTDDTAMYYCAKTTPIYFDYDHALDYWGQGTSVTVSS
VL: DVVVTQTPLSLPVSFGDQVSISCRSSQSLTNSYGNTYLSWYLHKPGQSPQLLIYGISNRFSGVPDRFSGSGSGTDFTLKISTIKPEDLGMYYCLQGTHQPYTFGGGTKLEIK
In the case of B1, the Kd (commonly the constant that tells how readily two partners part at equilibrium) was 17.6 nM.

B2: DKK1-A2 mAb HMB7 (antibody, V domains shown)
VH: EVQLQQSGAELVKPGASVKLSCTASGFNIKDTYMHWVKQRPEQGLEWIGRIDPANGDTKYDPKFQGKATITADTSSNTAYLHLSSLTSEDTAVYYCARGRYYYGTSSFDYWGQGTTLTVSS
VL: DIVMTQSHKFMSTSVGDWVSITCKAWQDVDTAVAWYQQKPGQSPKLLIYWASTRHTGVPDRFTGSGSGTDFTLTISNVQSEDLADYFCQQYSSYPYTFGGGTKLEIK
In the case of B2, the Kd worked out at 2780 nM.
